Legend:
[1] = target: recombinant human CD16a(F) (human) (UniProt P08637); assay: SPR (Biacore T100), antibody immobilized on sensor chip, soluble FcR as analyte, steady state affinity model
[2] = target: recombinant human CD32a (human) (UniProt P12318); assay: as above
[3] = target: recombinant human CD16b (human) (UniProt O75015); assay: as above
[4] = target: recombinant human CD16a(V) (human) (UniProt P08637); assay: as above
[5] = target: recombinant human CD64 (human) (UniProt P12314); assay: SPR (Biacore T100), antibody immobilized on sensor chip, soluble CD64 as analyte, 1:1 kinetic binding model
human FcRn (human) = human FcRn (human) (UniProt P55899); assay: SPR (Biacore T100), antibody immobilized on sensor chip, soluble FcR as analyte, steady state affinity model

Chain of recombinant human CD16a(F) (human) (P08637 17-208 limits assumed): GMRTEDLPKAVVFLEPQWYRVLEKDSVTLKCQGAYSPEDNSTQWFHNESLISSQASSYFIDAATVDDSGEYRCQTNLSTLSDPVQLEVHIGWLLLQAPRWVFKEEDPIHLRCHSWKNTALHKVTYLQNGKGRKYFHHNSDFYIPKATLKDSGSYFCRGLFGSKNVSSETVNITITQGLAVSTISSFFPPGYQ
Chain of recombinant human CD16b (human) (O75015 17-200 limits assumed): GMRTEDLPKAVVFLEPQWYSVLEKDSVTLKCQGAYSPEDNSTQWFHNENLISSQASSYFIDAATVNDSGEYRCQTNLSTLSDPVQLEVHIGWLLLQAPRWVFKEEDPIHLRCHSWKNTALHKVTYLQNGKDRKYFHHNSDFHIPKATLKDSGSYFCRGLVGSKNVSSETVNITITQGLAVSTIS
Chain of recombinant human CD32a (human) (P12318 34-217): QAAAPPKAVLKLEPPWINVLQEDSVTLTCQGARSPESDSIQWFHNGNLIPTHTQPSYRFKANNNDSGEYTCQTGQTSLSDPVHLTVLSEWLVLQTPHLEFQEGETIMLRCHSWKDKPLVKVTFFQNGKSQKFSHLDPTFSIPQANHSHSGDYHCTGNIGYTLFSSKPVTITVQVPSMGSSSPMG
Chain of recombinant human CD64 (human) (P12314 16-292 limits assumed): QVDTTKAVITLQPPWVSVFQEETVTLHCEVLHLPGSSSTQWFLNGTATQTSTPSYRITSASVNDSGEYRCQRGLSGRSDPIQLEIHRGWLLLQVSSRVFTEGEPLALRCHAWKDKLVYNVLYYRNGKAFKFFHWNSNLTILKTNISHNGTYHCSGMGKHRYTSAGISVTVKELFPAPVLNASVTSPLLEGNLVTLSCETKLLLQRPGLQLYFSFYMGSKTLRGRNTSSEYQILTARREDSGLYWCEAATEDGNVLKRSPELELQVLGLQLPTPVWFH
Chain of recombinant human CD16a(V) (human) (P08637 17-208 F176V limits assumed): as the sequence (P08637 17-208 limits assumed) above, with F160V counted along it

Kd [1] | Kd [2] | Kd [3] | Kd [4] | Kd [5] | Kd (human FcRn (human)) | Substance
962 nM | 2080 nM | 15000 nM | 734 nM | – | – | antibody having wild type human IgG1 domain (from UniProt P01857 1-330)
– | – | – | – | 278 nM | 712 nM | human IgG1 antibody having a N297S substitution (from UniProt P01857 1-330)

Reference: patent US20200023071A1
